Results: article PMC3156243, “Properties and Crystal Structure of Methylenetetrahydrofolate Reductase from Thermus thermophilus HB8” (PLoS ONE, 2011)

Biological target: the molecule itself
Experiment: SEC-MALS; as-purified MTHFR; HPLC on TSK-gel G3000SWxl with multi-angle light scattering and refractive index detectors; 50 mM Tris-HCl pH 6.8, 0.2 M NaCl; 0.5 ml/min; 0.1 mg protein/run

B1: Methylenetetrahydrofolate reductase (MTHFR) from Thermus thermophilus HB8, C-terminally hexa-His-tagged wildtype (enzyme, UniProt Q5SLG6 1-296, looked up)
chain: MKIRDLLKARRGPLFSFEFFPPKDPEGEEALFRTLEELKAFRPAFVSITYGAMGSTRERSVAWAQRIQSLGLNPLAHLTVAGQSRKEVAEVLHRFVESGVENLLALRGDPPRGERVFRPHPEGFRYAAELVALIRERYGDRVSVGGAAYPEGHPESESLEADLRHFKAKVEAGLDFAITQLFFNNAHYFGFLERARRAGIGIPILPGIMPVTSYRQLRRFTEVCGASIPGPLLAKLERHQDDPKAVLEIGVEHAVRQVAELLEAGVEGVHFYTLNKSPATRMVLERLGLRPASGQP
notes: Methylenetetrahydrofolate reductase (MetF homologue) of Thermus thermophilus HB8, clone TTHA0327, wildtype gene amplified by PCR into pET23; the original stop codon was mutated to Ala before the C-terminal hexa-His tag; One polypeptide in two cofactor states: as purified about one FAD per dimer (apo- plus holo-subunit), after FAD treatment one FAD per subunit; The stop codon is replaced by Ala, …
Question: Which “stoichiometry N” value does the source give for B1 here?
Answer: The value was 2.
